Patent US8933202B2, “AXL antibodies” (U3 Pharma GmbH, priority 2007, dated 2015)

Key:
[1] = tested on: NIH3T3-pLXSN control; test: Primary FACS screen of hybridoma antibodies, binding to mock control cells
Method: Monoclonal rat anti-AXL antibodies were raised by injection of approximately 10×10^6 frozen cells of RatI-AXL cl.2 both i.p. and subcutaneously into Lou/C or Long Evans rats. After an 8-week interval, a final boost was given i.p and subcutaneously 3 d before fusion. Fusion of the myeloma cell line P3X63-Ag8.653 with the rat immune spleen cells was performed according to standard procedures and yielded 105 hybridomas. After 2 weeks, first supernatants from hybridomas were collected and tested in a primary FACS screen for binding to NIH3T3-AXL cl.7 fibroblasts versus NIH3T3-Mock control cells. Clones positive for AXL binding were further cultivated. From 50 ml supernatant of these clones, antibodies were purified and re-analyzed for specific binding to AXL on NIH3T3-AXL cl.7 fibroblasts versus NIH3T3-Mock control cells. Purified antibodies specifically binding to NIH3T3-AXL cl. 7 fibroblasts but not NIH3T3-Mock control cells were furthermore tested in Akt-Kinase phosphorylation ELISAs, and ELISAs to determine the isotype were performed. For purification of rat antibodies, supernatants were spun for 20 minutes at 5,000 g and subsequently sterile filtered. 500 μl of protein G sepharose FF were added and incubated at 4° C. for at least 1 h on a spinning wheel. […]

[2] = biological target: T1, AXL (Homo sapiens, UniProt P30530); test: AXL receptor tyrosine phosphorylation ELISA; type: cell-based; parameters: expressed in transfected cells; host or cells: NIH3T3-AXL cl.7 (pLXSN-hAXL) and NCI-H292 lung cancer cells (endogenous AXL); conditions: 10 μg/ml antibody, 400 ng/ml Gas6; NIH3T3-AXL cl.7 fibroblasts and NCI-H292 lung cancer cells
T1 sequence (P30530 26-894): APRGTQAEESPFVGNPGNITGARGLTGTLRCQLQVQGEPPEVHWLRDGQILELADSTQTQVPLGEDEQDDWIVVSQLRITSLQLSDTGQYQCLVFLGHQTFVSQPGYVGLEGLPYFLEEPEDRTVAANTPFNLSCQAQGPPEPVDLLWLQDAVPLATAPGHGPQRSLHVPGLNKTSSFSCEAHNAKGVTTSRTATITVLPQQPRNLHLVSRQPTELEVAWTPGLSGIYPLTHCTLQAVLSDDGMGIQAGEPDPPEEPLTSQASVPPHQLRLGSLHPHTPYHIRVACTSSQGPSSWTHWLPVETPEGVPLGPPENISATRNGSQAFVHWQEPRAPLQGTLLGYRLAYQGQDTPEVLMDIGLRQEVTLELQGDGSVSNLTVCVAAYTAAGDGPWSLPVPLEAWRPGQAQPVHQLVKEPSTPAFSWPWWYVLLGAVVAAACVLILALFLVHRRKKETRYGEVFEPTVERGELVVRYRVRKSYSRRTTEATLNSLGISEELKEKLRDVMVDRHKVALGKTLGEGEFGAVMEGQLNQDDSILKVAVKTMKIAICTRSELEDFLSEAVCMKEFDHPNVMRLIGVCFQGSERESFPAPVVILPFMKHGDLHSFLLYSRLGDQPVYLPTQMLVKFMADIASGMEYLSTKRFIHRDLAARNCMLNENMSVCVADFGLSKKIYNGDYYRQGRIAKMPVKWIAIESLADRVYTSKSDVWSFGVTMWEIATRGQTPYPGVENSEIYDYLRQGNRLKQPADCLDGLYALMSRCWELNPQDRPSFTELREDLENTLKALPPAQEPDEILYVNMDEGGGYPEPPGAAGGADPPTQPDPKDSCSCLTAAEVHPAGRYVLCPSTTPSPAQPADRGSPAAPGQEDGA
Method: ELISA experiments were performed in order to investigate whether the rat anti-AXL antibodies of the invention are able to block ligand Gash-mediated activation of AXL. Gas6-mediated AXL activation was detected by increased receptor tyrosine phosphorylation. In brief, on day 1, 3×10^4 cells per well were seeded in normal growth medium in flat-bottom 96 well plates. The next day, growth medium was replaced by serum-free medium to starve cells over night for 24 h. Also over night, black Maxi-Sorp 96 well plates (Nunc) were coated with mouse anti-phospho-tyrosine antibody 4G10 at 2 μg/ml PBS and 4° C. On day 3, the 4G10 antibody solution was removed and Maxi-Sorp wells were blocked with PBS, 0.5% BSA for at lest 4 h at room temperature. […] Medium was then flicked out and cells were lysed in lysis buffer (50 mM HEPES, pH 7.5, 150 mM NaCl, 1 mM EDTA, 10% glycerine, and 1% Triton X-100) supplemented with phosphatase and protease inhibitors (10 mM Na4P2O7, 1 mM phenylmethylsulfonyl fluoride, 1 mM orthovanadate, 1 mM NaF, and 0.5% aprotinin) for 30 min on ice. […] Using a Victor plate reader (Perkin Elmer), the fluorescence of each well was collected at an excitation wavelength of 430 nm and an emission wavelength of 580 nm.

[3] = biological target: T2, human AXL-ECD (Homo sapiens, UniProt P30530); test: Competition ELISA on AXL-ECD coated plates; type: binding; conditions: 10 μg/ml unbiotinylated, 0.5 μg/ml biotinylated antibody
T2 construct: purchased R&D Systems 154-AL
T2 sequence (P30530 26-451 limits assumed): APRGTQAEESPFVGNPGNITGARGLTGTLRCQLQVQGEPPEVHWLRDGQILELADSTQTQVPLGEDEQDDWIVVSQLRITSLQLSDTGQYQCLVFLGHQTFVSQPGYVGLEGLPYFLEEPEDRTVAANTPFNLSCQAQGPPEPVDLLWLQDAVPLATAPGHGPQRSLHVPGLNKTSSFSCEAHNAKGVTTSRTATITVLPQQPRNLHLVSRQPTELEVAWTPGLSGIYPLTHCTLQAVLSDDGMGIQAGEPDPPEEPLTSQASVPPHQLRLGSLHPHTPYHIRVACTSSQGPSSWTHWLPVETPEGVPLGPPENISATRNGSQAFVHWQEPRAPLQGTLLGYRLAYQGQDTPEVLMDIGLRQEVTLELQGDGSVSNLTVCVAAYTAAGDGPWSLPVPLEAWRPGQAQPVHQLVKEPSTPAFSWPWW
Method: Therefore binding of biotinylated anti-AXL antibodies to AXL-ECD domain-coated plates preincubated with anti-AXL antibodies was determined in a competition ELISA. […] On day 1, black 96 well Maxi-Sorp plates (Nunc) were coated with 100 μl/well of 1 μg/ml human AXL-ECD (R&D Systems #154-AL) in PBS over night at 4° C. […] After washing 6× with wash buffer (PBS, 0.1% TWEEN-20), 80 μl/well AP-conjugated Streptavidin (Chemicon #SA110) diluted 1:4,000 in blocking buffer were added, incubated for 20 min at room temperature washed again 6× with wash buffer and finally washed once with PBS. For detection, 100 μl/well Attophos substrate solution (Roche #11681982) were added. Using a Victor plate reader (Perkin Elmer), the fluorescence of each well was collected at an excitation wavelength of 430 nm an emission wavelength of 580 nm.

[4] = tested on: NCI-H292 lung cancer cells; test: Wound healing/scratch assay; type: cell-based, human; conditions: 10 μg/ml antibody, 24 h, compared to isotypic control antibody
Excerpt: To examine the migration and proliferation rates of different cells and culture conditions, in vitro wound healing/scratch assays are being employed for many years. These assays generally involve growing a confluent cell monolayer first. A small area is then disrupted and a group of cells are being destroyed or displaced by scratching a line through the layer with, for example, a pipette tip. The open gap is then inspected microscopically over time as the cells move in and fill the damaged area (“healing”). In brief, 1.5×10^6 NCI-H292 lung cancer cells were seeded per well of a 12 well dish and cultured in normal growth medium (RPMI, 10% FCS). After 8 h, cells were rinsed with PBS and starved in low serum medium (RPMI, 0.5% FCS) over night for 24 h. Using a sterile 200 μl pipette tip, three separate uniform wounds per well were scratched through the confluent NCI-H292 cell monolayers. […] Cells were permitted to migrate into the area of clearing for 24 h, washed once with PBS and fixed with ice cold Methanol (100%) at −20° C. After cells were stained with crystal violet (0.5% in 20% Methanol), rinsed with water and dried over night, photos of the wounds were taken.

B1: 10D12: antagonistic rat anti-AXL monoclonal antibody (antibody, V domains shown)
VL: DIQMTQAPSSLPASLGDRVTIACRASQDIGNYLRWFQQKPGKSPRLMISGATNLAAGVPSRFSGSRSGSDYSRTISSLESEDMADYYCLQSKESPWTFGGGTKLELK
VH: EVQLQESGPGLVKPSQSLSLTCSVTGYSITSNYWGWIRKFPGNKMEWMGYITNSGGTAYNPSLKSRISITRDTSKNQFFLQLNSVIPEDSATYFCSRTPWDWGQGVMVTVSS
- FACS shift NIH3T3-pLXSN control [1]: 0.5
- ligand-mediated AXL activation (phosphorylation) [2]: able to block or reduce ligand-mediated AXL activation
- competition with antagonistic anti-AXL antibodies for binding to AXL-ECD [3]: compete with each other for the same or structurally adjacent epitopes
- re-population of the cleared area (wound closure) [4]: reduced the re-population of the cleared area
